Target: FMC63-scFv-mFc protein
Test: ELISA, plate coated with FMC63-scFv-mFc, biotin-labelled FMC63-scFv-mFc for detection

| Binder | EC50 [µg/mL] |
| --- | --- |
| mAb023 (75H6C7) (antibody, V domains shown) VH: QAQLQQPGAELVMPGASVKLSCKASGYTFTNYWMNWMKQRPGQGLEWIGEIDPSDSDKNYNQKFKDKATLTVDKSSSTAYMQLSSLTSEDSAVYYCAGGYYGMDFWGQGTSVTVSS VL: DVVMTQTPLSLPVSLGDQASISCRSSQSLENSKGNTYLNWYVQKPGQSPQLLIYRVSTRFSGVLDRFSGSGSGTDFTLKISRVEAEDLGVYFCLQLTHVPFTFGSGTKLEIK | 0.0512 |
| mAb020 (52H8C4) (antibody, human IgG1, kappa, V domains shown, Tested as the murine hybridoma antibody) VH: EVMLVESGGGLVKPGGSLKLSCAASGFTFSSYTMSWVRQTPEKRLEWVATITGGGGDTFYPDSVKGRFTISRDNAKNTLYLQVSSLRSEDTAVYHCARQYYDYDGGAMDYWGQGTSVTVSS VL: DIVLTQSPASLAVSLGQRAIISCKASQSVSFAGTGLMHWYQQKPGQQPKLLIYRASNLEAGVPTRFSGSGSRTDFTLNIHPVEEDDAATYYCQQSREYPRTFGGGTKLEIKR | 0.113 |
| mAb02 (8B3H4) (antibody, human IgG1, kappa, V domains shown, Tested as the murine hybridoma antibody) VH: QVQVQQPGAELVKPGASVRLSCKASGYTFTTYWMHWVKQRPGQGLEWIGMIHPNSDSINYNEKFKSKATLIVDKSSSTFYMQLSSLTSEDSAVYYCARTDGYYAPYFAMDYWGQGTSVTVSS VL: DIQMTQTTSSLSASLGDRVTISCRASQDIRDNLNWYQQKPDGTVKLLIYYKSRSHSGVPSRFSGSGSGTDYSLTISNLEQEDIATYFCQQGNTLPFTFGSGTKLEIKR | 0.023 |
| mAb07 (27C5E11) (antibody, V domains shown) VH: QVQLQQPGAELVKPGASVKLSCKASGYTFTSYWMHWVKQRPGQGLEWIGMIHPNGDSTNYNEKFKTKATLTVDKSSSTAYMQLSSLTSEDSAVYYCARTDGYYAPYFAMDYWGQGTSVTVSS VL: DIQMTQSTSSLSASLGDRVTISCRASQDINNYLNWYQQKPDGTVKLLIYYTSRLHLGVPSRFSGSGSGTDYSLTISNLEQEDIATYFCQQGNTLPFTVGSGTKLEIK | 0.099 |
| mAb06 (26E7D2) (antibody, human IgG1, kappa, V domains shown, Tested as the murine hybridoma antibody) VH: QVQLQQPGAELVKPGASVKLSCKVSGYTFTSYWIHWVKQRPGRGLEWIGRIDPISGGANYNEKFKTKATLTVDKPSSTAYMQLSSLTSEDSAVYYCARWGGGDYWGHGTTLTVSS VL: not shown | 0.0299 |

— patent WO2021223719A1 (dated 2021)
